Test results as given in publication PMC4630614.

Biological target: UbcA1, ubiquitin-conjugating enzyme E2 from Agrocybe aegerita (Agrocybe aegerita)
Assay: AUC; velocity sedimentation, Beckman XL-I, 4 °C, 40 μM protein, 50 mM Tris pH 7.5, 150 mM NaCl, 60,000 rpm, c(S) of Sedfit; monomer to dimer

monomer : dimer ratio (monomer : dimer): 32.6
stoichiometry N: 2
Substance: UbcA1, ubiquitin-conjugating enzyme E2 from Agrocybe aegerita
